{"source": "patent US20160032398A1", "about": "“METHODS FOR TREATING CANCER” (COMBIMMUNE, INC., priority 2013, published 2016)", "key": {"B16 melanoma tumors [1]": {"test_system": "B16 melanoma tumors", "experiment": "Mouse model of melanoma treated with chemerin: tumor-infiltrating leukocytes by FACS (Example 5)", "assay_type": "in vivo, mice (C57BL/6)", "description": "(§1) A mouse model of melanoma was used to study the effect of an immunomodulator, chemerin (RARRES2) (Pachynski et al. J. Exp. Med. 209(8):1427-1435, 2012). Both control and chemerin-over expressing tumors were transplanted into mice. Intratumoral injections of chemerin were also evaluated. For all animal experiments, C57BL/6 or B6.129S7-Rag1tm1Mom/J (RAG1 KO) mice were purchased from the Jackson Laboratory. Murine B16F0 melanoma, L1.2 B lymphoma, and human 293 HEK lines were obtained from the American Type Culture Collection. Cell lines were grown in complete media consisting of RPMI 1640 supplemented with 10% FBS, sodium pyruvate, penicillin/streptomycin, and beta-mercaptoethanol.\n(§2) To evaluate the effect of constitutively secreted chemerin on tumor growth, control or chemerin-expressing B16 melanoma tumor cells (0.5×10^6 or 1×10^6) were inoculated subcutaneously into mice. Tumor growth was measured every 2-4 d by calipers, and size was expressed as the product of perpendicular length by width in square millimeters. Mice were euthanized when tumor size reached about 400 mm^2 or when tumor sites ulcerated or at day 17 to evaluate for tumor-infiltrating leukocytes (TILs) by FACS.\n(§3) To evaluate the effect of exogenous chemerin on tumor growth, tumor lines were inoculated as indicated. Recombinant, active, carrier-free murine chemerin (R&D Systems) was reconstituted in sterile PBS. […]"}, "B16 melanoma tumors [2]": {"test_system": "B16 melanoma tumors", "experiment": "Mouse model of melanoma treated with chemerin: tumor growth, with NK cell depletion (Example 5)", "assay_type": "in vivo, mice (C57BL/6)", "conditions": "FIG. 10", "description": "as §1, §2, §3"}, "B16 melanoma tumors [3]": {"test_system": "B16 melanoma tumors", "experiment": "Chemerin-secreting B16 melanoma tumors: tumor-infiltrating leukocytes (Example 10)", "assay_type": "in vivo, C57BL6 mice", "conditions": "tumors engineered to secrete chemerin vs control tumors; FIG. 9", "description": "(§4) In order to determine the effect of chemerin on the TGS components in a mouse model, B16 melanoma tumors were implanted subcutaneously in C57BL6 mice. One cohort of mice received control tumors that received no treatment. The other cohort received tumors that were engineered to secrete the chemoattractant chemerin locally, thereby mimicking intratumoral injections of the chemoattractant."}, "B16 melanoma tumors [4]": {"test_system": "B16 melanoma tumors", "experiment": "Chemerin-secreting B16 melanoma tumors: tumor size (Example 10)", "assay_type": "in vivo, C57BL6 mice", "conditions": "chemerin (RARRES2) secreting tumors vs control tumors; p<0.05; FIG. 11", "description": "as §4\nClinically, the changes in the number of tumor-infiltrating leukocytes also correlated with tumor growth as well."}, "CD137 (TNFRSF9) [5]": {"test_system": "CD137 (TNFRSF9)", "experiment": "RT-qPCR of tumors for CD137 (Example 10)", "assay_type": "in vivo, C57BL6 mice", "conditions": "after 17 days; chemerin tumors (n=5) vs control group (n=4); GAPDH reference; FIG. 12", "description": "as §4\n(§5) After a period of 17 days, tumors were analyzed by RT-qPCR for LMO2 and CD137 (TNFRSF9), the key components of the TGS. […] Accordingly, a calculated TGS from the tumors would result in improved/lowered TGS score for the chemerin-treated group, whereas the control group that was not treated, and thus had fewer infiltrating NK and T cells, would have a worse/higher TGS score. GAPDH was used as the housekeeping/reference gene (not shown)."}, "LMO2": {"test_system": "LMO2", "experiment": "RT-qPCR of tumors for LMO2 (Example 10)", "assay_type": "in vivo, C57BL6 mice", "conditions": "after 17 days; chemerin tumors vs control; FIG. 12", "description": "as §4, §5"}, "B16 melanoma tumors [6]": {"test_system": "B16 melanoma tumors", "experiment": "Control, EGFR-expressing and chemerin-secreting B16 tumors: tumor-infiltrating leukocytes by FACS (Example 11)", "assay_type": "in vivo, mice", "conditions": "chemerin-secreting B16 tumors; Day 11; FIG. 13B", "description": "(§6) In a separate experiment, three cohorts of mice were inoculated with B16 melanoma tumors. […] Each group comprised three mice. Tumors were allowed to grow until Day 9. […] Forty-eight hours after the single injection (Day 11), the tumors from all three groups were analyzed for infiltrating NK and T cells, as well as CD137 (TNFRSF9) expression."}, "CD137 (TNFRSF9) [7]": {"test_system": "CD137 (TNFRSF9)", "experiment": "CD137 expression on tumor-infiltrating leukocytes by FACS (Example 11)", "assay_type": "in vivo, mice", "conditions": "chemerin-secreting B16 tumors; vs control tumors treated with cetuximab; FIG. 14", "description": "as §6"}, "B16 melanoma tumors [8]": {"test_system": "B16 melanoma tumors", "experiment": "Control, EGFR-expressing and chemerin-secreting B16 tumors: tumor size (Example 11)", "assay_type": "in vivo, mice", "conditions": "chemerin-secreting B16 tumors; Day 11; vs control tumors treated with cetuximab; FIG. 16", "description": "as §6\nThe same tumors from the three groups were analyzed for tumor size (mm^2), a surrogate for clinical outcomes and survival, at pretreatment ([…]) and post-treatment (Day 11)."}, "CD137": {"test_system": "CD137", "experiment": "RT-qPCR of tumor biopsies for CD137 (Example 11)", "assay_type": "in vivo, mice", "description": "as §6\nTumor biopsies from the three treatment groups were also analyzed by RT-qPCR to measure LMO2 and CD137 expression.\nThe TGS takes into account the relative expression levels of both CD137 and LMO2. Therefore, the ratio of relative expression of CD137 to LMO2 was determined."}}}
{"molecule": "chemerin: chemoattractant polypeptide that attracts cells including NK cells, T cells, macrophages and dendritic cell subsets; given recombinant or secreted by engineered tumors (protein, UniProt Q99969 21-157, looked up) Retinoic acid receptor …: ELTEAQRRGLQVALEEFHKHPPVQWAFQETSVESAVDTPFPAGIFVRLEFKLQQTSCRKRDWKKPECKVRPNGRKRKCLACIKLGSEDKVLGRLVHCPIETQVLREAEEHQETQCLRVQRAGEDPHSFYFPGQFAFS", "values": [{"measurement": "NK and T cells in murine tumors", "setting": "B16 melanoma tumors [1]; FIG. 8", "result": "increase in NK and T cells"}, {"measurement": "infiltrating leukocyte subsets in murine tumors (activated NK and T cells)", "setting": "B16 melanoma tumors [1]; FIG. 9", "result": "increased the representation of activated NK and T cells"}, {"measurement": "clinical efficacy on tumor growth after depletion of NK cells", "setting": "B16 melanoma tumors [2]; NK cells depleted with anti-Asialo GM1", "result": "abrogated the clinical efficacy"}, {"measurement": "tumor growth", "setting": "B16 melanoma tumors [2]; mice", "result": "inhibit tumor growth"}, {"measurement": "tumor-infiltrating leukocytes (NK and T cells)", "setting": "B16 melanoma tumors [3]", "result": "increase in tumor-infiltrating leukocytes"}, {"measurement": "tumor size", "setting": "B16 melanoma tumors [4]", "result": "significantly smaller than control tumors"}, {"measurement": "CD137 (TNFRSF9) expression by RT-qPCR", "setting": "CD137 (TNFRSF9) [5]", "result": "significantly increased"}, {"measurement": "LMO2 expression by RT-qPCR", "setting": "LMO2", "result": "not significantly changed"}, {"measurement": "CD8+ T cells and NK cells of CD45+ TIL", "setting": "B16 melanoma tumors [6]", "result": "small increases in both CD8+ T cells and NK cells"}, {"measurement": "CD137 expression on total tumor-infiltrating leukocytes (FACS)", "setting": "CD137 (TNFRSF9) [7]", "result": "increase in CD137 expression"}, {"measurement": "tumor size", "setting": "B16 melanoma tumors [8]", "result": "significantly smaller than control tumors"}, {"measurement": "CD137:LMO2 ratio of relative expression", "setting": "CD137; chemerin treated tumors vs non-EGFR and cetuximab treated tumors, FIG. 19", "result": "greater"}, {"measurement": "relative CD137 expression (RT-qPCR)", "setting": "CD137; tumors treated with chemerin, 48 hours time point, FIG. 17B", "result": "significantly higher"}]}
